Reference: US20190248902A1 (published 2019)

T1: human ASGR-1 (wild type) (human, UniProt P07306 1-291)
T1 construct: also called wt ASGR1; huASGR-1
T1 sequence: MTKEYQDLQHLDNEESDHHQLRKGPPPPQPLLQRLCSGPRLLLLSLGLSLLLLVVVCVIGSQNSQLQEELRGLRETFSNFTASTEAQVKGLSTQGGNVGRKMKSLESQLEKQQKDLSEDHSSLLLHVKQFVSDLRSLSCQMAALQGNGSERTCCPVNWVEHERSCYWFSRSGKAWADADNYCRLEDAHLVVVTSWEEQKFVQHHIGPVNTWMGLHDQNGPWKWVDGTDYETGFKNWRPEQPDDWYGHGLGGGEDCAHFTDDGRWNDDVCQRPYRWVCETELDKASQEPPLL


Each binder was assayed against T1, human ASGR-1 (wild type) (assay: flow cytometry, CHO-S:huASGR-1 cells, 11-point titration).
Protocol: CHO—S stable high-expressing cell line were developed for both human ASGR-1 as well as mouse ASGR-1. A typical 384 well plate multiplex flow cytometery-based cell binding method is described as followed: Parental CHO—S cells and CHO—S:huASGR-1 cells were respectively labeled using a CellTrace CFSE Cell Proliferation Kit (ThermoFisher Catalog #C34554) and CellTrace Violet Cell Proliferation Kit (ThermoFisher Catalog#C34557) CHO—S:muASGR-1 were not labeled. 20 ul of cells at 4C were added to duplicate wells of the 384 well plate. The cells were equally mixed from all three cell lines (30K cells/well). Then 20 ul of the ASGR-1 antibodies (either purified from hybridoma supernatants or made recombinantly) were added in an 11-point dose response using a 1:2 fold serial dilution starting at 100 nM. The cells and antibodies were incubated for 30 min at 4C and then spun down and washed twice with FACS buffer containing 1 mM CaCl2. 30 ul of anti-hulgG-APC secondary antibodies were then added at a 1:1000 dilution) for 30 min at 4C and then washed once with the same buffer. 60 ul of PI (1:1000) was added and then the cells were read by a core flow cytometry facility. The cells were gated first for live cells, then for single cells and finally for the cell dyes to separate the mixed cells into the three different cell populations. Histograms of signal vs count representing the binding profile of each antibody at each antibody concentration were automatically analyzed for the median of the binding signal and then a binding graph was made with log 10 antibody concentration in nM on the X axis with […] from the duplicate wells on the Y-axis. The binding curves were fit with a standard four parameter sigmoidal binding curve and EC50's reported for all graphs with full curves.

Row | Binder | EC50 [nM]
1 | 194A4 (antibody, V domains shown, mAb) VH: QVQLVQSGTEVKKPGASLKVSCKASGYTFTVYYLNWVRQAPGQGLEWMGWINPNSGGTNYAQKFQGRVTMTRDTSISTAYMELSRLRSDDTAVYYCARGYDILTGWGQGTLVTVSS VL: EIVLTQSPGTLSLSPGERATLSCRASRGVSNIYLAWYQQKPGQAPRLLIYGASNRATGIPDRFSGSGSGTDFTLTISRLEPEDFAVYYCQHNDYSMFTFGPGTKVDIK | 25
2 | 22G5 (antibody, V domains shown, mAb) VH: EVQLLESGGGLVQPGGSLRLSCAASGFTFSSYAMNWVRQAPGMGLEWVSVISRSGGYTYYADSVKGRFTISRDNSKNTLYLQMNSLRAEDTAVYYCASRLAVAGSEAFDIWGQGTLVTVSS VL: DIQMTQSPSSLSASVGDRVTITCRASQNISSYLNWYQQKQGKAPKLLIYAASSLQNGVPSRFSGRGSGTDFTLTISSLQPEDFATYYCQQSYRTPLFTFGPGTKVDFK | 7.2
3 | 184E7 (antibody, V domains shown, mAb) VH: QVQLVQSGAEVKTPGASVKVSCRASGYTFTSYNMHWVRQVPGQGLEWMGWINPNNGGSNYTQKFQGRVTMTRDTSISTAYMELSRLRSDDTAVYYCARKFGDWGQGTLVTVSS VL: DIQMTQSPSSRSASIGERVTITCRASQGISNYLAWIQQKPGTAPKSLIYAASSLQSGVSSRFSGSGFGTDFTITISSVQREDFATYYCQQYNGYPFTFGHGTKVDIK | 1
4 | 48B12 (antibody, V domains shown, mAb) VH: EVQLLESGGGLVQPGGSLRLSCAASGFTFSSYAMNWVRQAPGKGLEWVSAISGRGGNTFYADSVKGRFTISRDNSKNTLYLQMNSLRAEDTAVYYCAKRETYNWNYEGFDYWGQGTLVTVSS VL: SYELTQPPSVSVSPGQTARITCSGDALPKKYAYWYQQKSGQAPVLVIYEDSKRPSGIPERFSGSSSGTMATLTISGAQVEDEADYYCNSTDSSGNHVVFGGGTKLTVL | 38
5 | 25A4 (antibody, V domains shown, mAb) VH: QVLLVQSGAEVKRPGASVKVSCKASGYTFTNYDINWVRQATGQGLEWMGWMYPNSGNTGYAQKFQGRVTMTRNTSISTAYMELSSLRSEDTAVYYCASSSGWYYFDYWGQGTLVTVSS VL: DIVMTQFPDSLAVSLGERATIKCKSSQSVLYSSHNNNYLAWYQQKPGQPPKLLLYWASTRESGVPDRFSGSGSGTEFTLTISSLEAEDVAVYYCQQYYSTPPTFGQGTKVEIK | 1.6
6 | 26C4 (antibody, V domains shown, mAb) VH: QVQLVQSGAEVKKPGASVKVSCKASGYTFTNYDINWVRQASGQGLEWMGWMNPNSGNTGYAQRFQGRVTMTRNTSINTAYMELSSLRSEDTAVYYCASSSGWYYFDYWGQGTLVTVSS VL: not shown | 11
7 | 29H8 (antibody, V domains shown, mAb) VH: QVQLVQSGAEVQKPGASVKVSCKASGYTFTNYDINWVRQATGQGLEWMGWMNPNSGNTGYAQRFQGRVTMTRNTSISAAYMELSSLRSEDTAVYYCASSSGWYYFDYWGQGTLVTVSS VL: not shown | 1.9
8 | 7E11 (antibody, V domains shown, mAb) VH: QVQLVESGGGVVQPGRSLRLSCAASGFTFSSFGMHWVRQAPGKGLEWVAIIWHDGSNKYYADSVKGRFTISRDNSNNTLYLQMSSLRAEDTAVYYCARDLSMGGMDVWGQGTTVTVSS VL: DIQMTQSPSSLSASVGDRVTIACRASQNIISYLNWYQQKPGKAPKFLIYTASSLQSGVPSRFSGSGSGTDFTLTISSLQPEDFAIYYCQQTYSTPLTFGGGTKVEIK | 1.4
9 | 5E5 (antibody, V domains shown, mAb) VH: QVQLVESGGGVVQPGRSLRLSCAASGFTFSNYVMHWVRQAPGKGLEWVAVIWYDGSNKYYADSVKGRFTISRDNSKNTLYLQMNSLRAEDTAVYYCTREVYSSGWYDYGMDVWGQGTTVTVSS VL: DIQMTQSPSSLSASVGDRVTITCRASQGIRNDLGWYQQKPGKAPKRLIYAASSLQSGVPSRFSGSGSGTEFTLTISSLQPEDFATYYCLQHYSYPRTFGQGTKVEVK | 3.8
10 | 190F8 (antibody, V domains shown, mAb) VH: QVQLVESGGGVVQPGRSLRLSCAASGFTFSTYGMHWVRQAPGKGLEWVAVIWYDGSNKNYADSVKGRFTISRDNSKNTLYLQMNSLRAEDTAVYYCARDQGVGYDGLDVWGQGTTVTVSS VL: DIQMTQSPSSLSASVGDRVTITCRTSQGIGNYLAWFQQKPGKAPKSLLYKASSLQSGVPSKFSGSGSGTDFTLTISSLQPEDFATYYCQQYMTYPLTFGGGTKVEIK | 9
11 | 56E5 (antibody, V domains shown, mAb) VH: QVQLVQSGAEVKKPGASVKVSCQASGYTFTGYHMHWVRQAPGQGLEWMGWINPNNNATNYAQKFQGRVTMTRDTSISTAYMELRRLRSDDTAVYHCARDGTSSFDYWGQGTLVTVSS VL: DIQMTQSPSSVSASVGDRVTITCRASQGIRKWLAWYQQKPGKAPKLLIYAASSLQSGVPSRFSGSGSGTDFTLTISSLQPEDFATYYCQQANSFPFTFGPGTKVDIK | 1.1

These reach a lower EC50. Values come first.

Row | EC50 [nM] | Binder
12 | 0.82 | 4A2 (antibody, V domains shown, mAb) VH: QVQLVQSGTEVKKPGASVKVSCKASGYTFTNYDINWVRQATGQGLEWMGWMHPNSGNTGYAQKFQGRVTLTRNTSISTAYMELSSLRSEDTAVYYCASSSGWYYFDYWGQGTLVTVSS VL: DIVMTQSPDSLAVSLGERATINCKSSQSILHSSNNNNYLAWFQQKPGQPPKLLLYWASTRESGVPDRFSGSGSGTDFTLTISSLQPEDVAVYYCQQYYNTPVTFGPGTKVGIK
13 | 0.6 | 6G7 (antibody, V domains shown, mAb) VH: QVQLVESGGGVVQPGRSLRLSCAASGFTFSSYGMHWVRQTPGKGLEWVAIISYVGKNKYYADSVKGRFTISRDNSKNTLYLQMNSLRAEDTAVYYCARRGNSYGGYGMDVWGQGTTVTVSS VL: DIQMTQSPSSRSASVGDRVTITCQASQDISNYLNWCQQKPGKALKLLIYDASTLETGVPSRFSGSGSGTDFTFTISSVQPEDIATYYCQQYDNVPITFGQGTRLEIK
14 | 0.69 | 7G4 (antibody, V domains shown, mAb) VH: QVQLVESGGGVVQPGRSLRLSCAASGFTFNNYVMHWVRQAPGKGLEWVAVIWYDGSNKYYADSVKGRFTISRDNSKNTLYLQMTSLRAEDTAVYYCAREKYSSNWYDYGMDVWGQGTTVTVSS VL: DIQMTQSPSSLSASVGDRVTITCRASQGIRNDLGWYQQRPGKAPKRLIYAASSLQSGVPSRFSGSGSGTEFTLTISSLQPEDSATYYCLHQYSYPRTFGQGTKVEIK
15 | 0.11 | 194C1 (antibody, V domains shown, mAb) VH: QVQLVESGGGVVQPGRSLRLSCAASGFTFSSYGMHWVRQAPGKGLEWVAVIWYDGSNEHYADSVKGRFTISRDNSKNTLYLQMNSLRAEDTAVYYCARNRGVGYYGLDVWGQGTTVTVSS VL: DIQMTQSPSSLSASVGDRVTITCRASQGISNYLAWFQQKPGKAPKSLIYAASSLQSGVPSKFSGSGSGTDFTLTISSLQPEDFATYYCLHYLTYPLTFGGGTKVEIK
16 | 0.16 | 191G1 (antibody, V domains shown, mAb) VH: QVQLVESGGGVVQPGRSLRLSCAASGFTFSSYGMHWVRQAPGKGLEWVAVIWYDGSNEHYADSVKGRFTISRDNSKNTLYLQMNSLRAEDTAVYYCARDRGVGYYGLDVWGQGTTVTVSS VL: DIQMTQSPSSLSASVGDRVTITCRASQGISNYLAWFQQKPGKAPKSLIYAASSLQSGVPSKFSGSGSGTDFTLTISSLQPEDFATYYCQHYLTYPLTFGGGTKVEIK
17 | 0.31 | 191G10 (antibody, V domains shown, mAb) VH: QVQLVESGGGVVQPGRSLRLSCAASGFTFSSYGMHWVRQAPGKGLEWVAVIWYDGSNKNYADSVKGRFTISRDNSKNTLYLQMNSLRAEDTAVYYCARDQGVGYDGLDVWGQGTTVTVSS VL: DIQMTQSPSSLSASVGDRVTITCRTSQGIGKYLAWFQQKPGKAPKSLLYKVSSLQSGVPSKFSGSGSGTDFTLTISSLQPEDFATYYCQQYMTYPLTFGGGTKVEIK
18 | 0.21 | 198G3 (antibody, V domains shown, mAb) VH: QVQLVESGGGVVQPGRSLKLSCAASGFTFSTYGMHWVRQAPGKGLEWVAVIWYDGTNKNYADSVKGRFTISRDNSKNTLCLQMNSLRAEDTAVYYCARDQGVGYDGLDVWGQGTTVTVSS VL: DIQMAQSPSSLSASVGDRVTITCRTSQGIGKYLAWFQQKPGKAPKSLLYKASSLQGGVPSKFSGSGSGTDFTLTISSLQPEDFATYYCQQYMTYPLTFGGGTKVEIK
19 | 0.41 | 72G9 (antibody, V domains shown, mAb) VH: EVQLVESGGGLVKPGGSLRLSCAASGFTFSSYSMNWVRQAPGKGLEWVSSISGSSSYIYYADSVKGRFTISRDNAKNSLYLQMNSLRAEDTAVYFCARGGSRGFDPWGQGTLVTVSS VL: DIQMTQSPSSLSASVGDRVTITCRASQSITSYLNWYQQKPGKAPKLLIYTASSLQSGVPSRFSGSGSGTDFTLTISSLQPEDFATYYCQQSHSFPFTFGPGTKVDIK
